The values that follow come from article PMC6028451.

The target in assay [1] is FtsY (Escherichia coli) (UniProt P10121). As to conditions: cited from earlier work.
The target of assay [2] is SRP (Escherichia coli) (UniProt P0AGD7). The following applies: cited from earlier work.
The target of assay [3] is SRP(MDCC): signal recognition particle with MDCC at position 235 in the G domain of Ffh (Escherichia coli) (UniProt P0AGD7). In words: other fluorescence titration; SRP(MDCC) 25 nM titrated with FtsY(Bpy); SRP bound to Lep50-RNC (10 nM); buffer A, 25 °C; apparent.
The target is the same in assay [4]. Nature of the assay: other fluorescence titration; equilibrium titration monitored by FRET; SRP(MDCC) 25 nM titrated with FtsY(Bpy); SRP bound to 70S ribosomes (500 nM); buffer A, 25 °C; apparent.
For assay [5] the target is unchanged. In words: other fluorescence titration; as a22 (Lep75-RNC), with SecYEG in nanodiscs (300 nM); apparent.
Assay [6] shares this target. In words: stopped-flow FRET kinetics; Lep50-RNC (30 nM) in complex with SRP(MDCC) (500 nM) rapidly mixed with FtsY(Bpy) (1 µM); no SecYEG.
Assay [7] shares this target. In words: stopped-flow FRET kinetics; 70S ribosomes (50 nM) in complex with SRP(MDCC) (500 nM) rapidly mixed with FtsY(Bpy) (1 µM); acceptor (Bpy) fluorescence; no SecYEG.
For assay [8], the target named is (Bpy)Lep50-RNC: stalled ribosome-nascent-chain complex with a nascent chain of leader peptidase (Lep) of 50 amino acids, Bodipy FL at the N-terminal methionine (Escherichia coli) (UniProt P00803). Nature of the assay: other fluorescence titration; as a5, in the presence of FtsY (1 µM) and SecY39EG in nanodiscs; apparent.
The target of assay [9] is (Bpy)Lep75-RNC: stalled ribosome-nascent-chain complex with a nascent chain of leader peptidase (Lep) of 75 amino acids, Bodipy FL at the N-terminal methionine (Escherichia coli) (UniProt P00803). Described as above.
The target of assay [10] is Lep50- or Lep75-RNC. Nature of the assay: other fluorescence titration; equilibrium titration monitored by FRET; (Bpy)Lep-RNC 4 nM titrated with SRP(Alx), GDPNP 500 µM, buffer A, 25 °C; apparent; without SecYEG.
For assay [11], the target named is Lep50- or Lep75-RNC. In words: other fluorescence titration; as a5, in the presence of saturating amounts of SecYEG in nanodiscs; apparent.
In assay [12] the target is (Bpy)Lep50-RNC: stalled ribosome-nascent-chain complex with a nascent chain of leader peptidase (Lep) of 50 amino acids, Bodipy FL at the N-terminal methionine (Escherichia coli) (UniProt P00803). In words: other fluorescence titration; as a5, RNC in complex with FtsY (1 µM) and SecYEG in nanodiscs (increasing to saturating); apparent.
For assay [13], the target named is (Bpy)Lep75-RNC: stalled ribosome-nascent-chain complex with a nascent chain of leader peptidase (Lep) of 75 amino acids, Bodipy FL at the N-terminal methionine (Escherichia coli) (UniProt P00803). The assay is described as above.

Sequence of FtsY (P10121 2-497): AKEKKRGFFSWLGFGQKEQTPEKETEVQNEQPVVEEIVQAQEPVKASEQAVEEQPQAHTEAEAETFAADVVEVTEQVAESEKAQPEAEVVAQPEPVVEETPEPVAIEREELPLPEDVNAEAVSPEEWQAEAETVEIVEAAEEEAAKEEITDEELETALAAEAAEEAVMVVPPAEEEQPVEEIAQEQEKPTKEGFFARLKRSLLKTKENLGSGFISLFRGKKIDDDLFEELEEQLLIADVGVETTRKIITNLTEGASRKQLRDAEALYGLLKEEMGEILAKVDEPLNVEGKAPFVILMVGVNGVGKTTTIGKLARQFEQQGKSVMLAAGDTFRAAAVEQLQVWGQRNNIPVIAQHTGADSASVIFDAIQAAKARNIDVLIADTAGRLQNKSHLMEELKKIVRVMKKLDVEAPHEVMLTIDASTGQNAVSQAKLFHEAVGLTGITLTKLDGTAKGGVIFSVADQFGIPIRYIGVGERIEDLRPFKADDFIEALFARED
Sequence of SecYEG (P0AGA2 whole entry): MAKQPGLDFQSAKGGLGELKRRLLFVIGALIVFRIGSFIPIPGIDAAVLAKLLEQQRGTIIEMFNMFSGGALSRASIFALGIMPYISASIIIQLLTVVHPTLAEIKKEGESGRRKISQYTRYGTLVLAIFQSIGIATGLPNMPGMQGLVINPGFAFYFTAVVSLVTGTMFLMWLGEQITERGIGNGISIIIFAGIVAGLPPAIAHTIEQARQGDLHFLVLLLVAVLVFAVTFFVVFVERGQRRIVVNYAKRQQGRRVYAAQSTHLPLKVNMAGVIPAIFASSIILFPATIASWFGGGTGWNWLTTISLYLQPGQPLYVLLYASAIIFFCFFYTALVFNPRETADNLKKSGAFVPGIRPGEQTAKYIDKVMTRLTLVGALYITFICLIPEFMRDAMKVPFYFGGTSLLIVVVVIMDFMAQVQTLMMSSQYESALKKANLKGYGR
Sequence of SecYEG (P0AG96 whole entry, further chain): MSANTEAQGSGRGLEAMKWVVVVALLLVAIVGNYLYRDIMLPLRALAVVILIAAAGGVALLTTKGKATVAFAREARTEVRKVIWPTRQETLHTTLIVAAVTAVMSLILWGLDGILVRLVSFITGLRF
Sequence of SecYEG (P0AG99 whole entry, further chain): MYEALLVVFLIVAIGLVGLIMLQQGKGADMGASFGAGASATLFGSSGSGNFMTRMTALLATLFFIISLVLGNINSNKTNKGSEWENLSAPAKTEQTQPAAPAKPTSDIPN

For SecYEG (from UniProt P0AGA2), the Kd in assay [1] was 200 nM.
In the case of FtsY (from UniProt P10121), in [2], the Kd was 500 nM.
Consider “FtsY(Bpy): SRP receptor FtsY with Bodipy FL at position 487 in the N domain (from UniProt P10121 1-497)”, for which the Kd is 5 to 10 nM in assay [3], 50 nM in assay [4] and 40 nM in [5]. In addition, in [5], the fold increase of the appKd with SecYEG against without SecYEG was determined as 10 fold. The average half-life time of association in assay [6] turned out to be 1 s. Moreover, the half-life time of association in assay [7] was 15 s.
“SRP(Alx): signal recognition particle with Alexa555 at position 430 in the M domain of SRP protein Ffh (from UniProt P0AGD7 1-453) (complex)”: the fold change of the apparent affinity with SecY39EG–FtsY in assay [8] and in [9] was under 5 fold each time. Besides, the Kd in [10] was 3 to 4 nM; in assay [11], 15 to 20 nM; in assay [12], 50 nM. In addition, the α (factor by which the appKd of SRP binding is increased by SecYEG–FtsY) in assay [13] is 4.
